The target in this test is T1, Clp-protease subunit R (ClpR) from Synechococcus sp. (Synechococcus sp., UniProt Q9L4P4 1-228).
T1 construct: ClpR, Clp-protease subunit R, Synechococcus sp., UniProtKB Q9L4P4; Stood in the crosslinked ClpCP3R complex; also called R-subunit; source: part of the Synechococcus ClpCP3R complex, obtained as described previously according to [20]
T1 sequence (looked up): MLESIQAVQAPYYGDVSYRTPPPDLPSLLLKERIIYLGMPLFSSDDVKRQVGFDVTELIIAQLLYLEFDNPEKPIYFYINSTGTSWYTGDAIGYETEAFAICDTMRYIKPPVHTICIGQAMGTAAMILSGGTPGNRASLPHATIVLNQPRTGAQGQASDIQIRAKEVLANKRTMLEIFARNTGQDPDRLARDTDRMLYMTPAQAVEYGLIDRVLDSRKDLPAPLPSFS
In words: cross-linking; Clp-protease multisubunit complex (ClpCP3R) crosslinked with H12/D12 BS3; tryptic digest separated into 192 fractions, LC-MALDI-TOF/TOF, FINDX (7 ppm, intensity parameter 0.22), MSMS validation. The conditions noted are these: both partners purified.

B1: Clp-protease subunit P3 (ClpP3) from Synechococcus sp. (natural protein, UniProt Q9L4P3 1-199, looked up)
chain: MPIGVPSVPYRLPGSSFERWIDIYNRLAMERIIFLGQEVTDGLANSIVAQLLYLDSEDSSKPIYLYINSPGGSVTAGMAIYDTMQYIKSPVITICLGLAASMGAFLLCAGSKGKRLALPHSRIMIHQPLGGTGRRQASDIEIEAKEILRIKKLLNQIMADRTGQPLEKIEKDTDRDYFMSAEEAREYGLIDQVIAERPV
notes: ClpP3, Clp-protease subunit P, Synechococcus sp., UniProtKB Q9L4P3; Stood in the crosslinked ClpCP3R complex (P3 and R in a proteolytic core of two heptameric rings, ClpC in a hexameric ring); also called P3-subunit; source: part of the Synechococcus ClpCP3R complex, obtained as described previously according to [20]; not shown: His6, C-terminal, kept
On to B1, for which the binding result is on record as “binds”.

The values above are taken from publication PMC3377668, “Detection of Crosslinks within and between Proteins by LC-MALDI-TOFTOF and the Software FINDX to Reduce the MSMS-Data to Acquire for Validation” (PLoS ONE, 2012).
